Columns and labels:
[1] = test system: ECFC; experiment: mRNA expression of sCD146 isoforms in ECFC (qPCR); format: cell-based, human; details: for expression of short CD146, long CD146, I5-13-sCD146 and I10-sCD146 at the mRNA level: endothelial cells treated with recombinant proteins
Description: C: The mRNA expression of I10-sCD146 and I5-13-sCD146 isoforms was analyzed by qPCR in ECFC after treatment of the cells for 24 h with the recombinant shed soluble CD146 50 ng/ml, VEGF 20 ng/ml, TNF 20 ng/ml, TGF beta 5 ng/ml, and netrin 50 ng/ml. Cells were also treated for 15 min with WNT5a 200 ng/ml and 1 h with WNT3a 50 ng/ml. Results are the mean values +/−SEM of 3 experiments. *: P<0.05, experimental vs Control.
Total cellular RNA was isolated from cells, reverse transcribed into cDNA and the resulting cDNA was subjected to qPCR.

[2] = test system: ECFC; experiment: ECFC proliferation assay; format: cell-based, human; details: recombinant proteins 50 ng/ml, in the presence of GM6001 10 μM
Description: A: Effect of siRNA targeting I10-sCD146 and I5-13-sCD146 on proliferation of ECFC. Experiments were performed in the presence of GM6001 10 μM. Results are mean values of 4 different experiments and representative pictures of the cells in one experiment are given.
B: Effect of over-expression of I10-sCD146 (p-I10-sCD146), I5-13-sCD146 (p-I5-13-sCD146) and shed sCD146 (p-shed sCD146) realized by plasmid transfection on proliferation of ECFC. Experiments were performed in the presence of GM6001 10 μM.
C: Effect of recombinant proteins I10-sCD146, I5-13-sCD146 and shed sCD146 50 ng/ml on the proliferation of ECFC. Experiments were performed in the presence of GM6001 10 μM. Results are mean values of 4 different experiments.
Experiments were performed as previously described (Stalin et al., 2013).

[3] = test system: ECFC; experiment: Endothelial cell tube formation in spheroids; format: cell-based, human; details: recombinant proteins 50 ng/ml
Description: E: Effect of recombinant proteins I10-sCD146, I5-13-sCD146 and shed sCD146 50 ng/ml on the number of sprouts, branched points and cumulative sprout length in spheroid experiments realized with ECFC. Results were compared to VEGF 20 ng/ml and complete EGM2-MV medium.
Formation of spheroid experiments was performed as previously described (Korff T. et al., 2001).

[4] = test system: mouse ischemic hind limb model; experiment: Mouse hind limb ischemia model; format: in vivo; details: for blood flow (laser-Doppler): 2 μg locally twice a week for 28 days; for blood flow (laser-Doppler) / vascularisation of muscle (isolectin B4 labelling): compared to PBS; for vascularisation of muscle (isolectin B4 labelling): 28 days after surgery; for number of vessels in the legs (angiography pictures) / vessel density in calf, thigh and whole leg (angiography quantification): D28, compared to PBS
Description: A: Ischemic mice were treated with PBS or 2 μg of rh-sCD146/rh-I10-sCD146/rh-I5-13-sCD146 or VEGF. Blood perfusion rate was monitored by laser-Doppler. Results are mean values of 6 different animals in each group and expressed as % of the control leg. *, **, ***: P<0.05, P<0.01, P<0.001, I10-sCD146 vs. PBS; $$, $$$: P<0.01, P<0.001, I5-13-sCD146 vs. PBS; ##, ###: P<0.01, P<0.001, shed sCD146 vs. PBS; £: P<0.05, VEGF vs. PBS.
B: Blood vessels examination in hind limb muscle sections from control (PBS) and shed rh-sCD146/rh-I10-sCD146/rh-I5-13-sCD146 treated animals 28 days after surgery. Vessels are labelled with isolectin B4.**, ***: P<0.01, P<0.001, experimental vs control. $: P<0.05, I10-sCD146 vs I5-13-sCD146.
C: Angiographic pictures of control (PBS) and shed sCD146/I10-sCD146/I5-13-sCD146 treated animals at D28. Pictures are representative of the 6 animals in each group. Average of the density of the vessels was expressed as right versus left leg in the different parts of the legs (calf, thigh) and in the whole leg. *, **: P<0.01, P<0.001 experimental vs PBS in calf; $: P<0.05, experimental vs PBS in thigh; #, ##: P<0.05, P<0.01, experimental vs PBS in whole leg.
In sections of muscles from ischemic mice, vascularisation was visualized with isolectin B4 (Lifetechnologies) ( 1/100). Tissue sections were examined by fluorescence microscopy (Leica sp5, Leica, Nanterre, France).
Female mice were subjected to unilateral hind limb ischemia by complete resection of the entire left femoral artery. After surgery, animals were split in four treatment groups: one control group injected in ischemic adductor muscles twice a week with PBS for 28 days; three experimental groups treated as the control groups with the three different recombinant human soluble CD146 (rh-sCD146, rh-I5-13-sCD146, rh-I10-sCD146) 2 μg.
The ratio of the ischemic versus normal hind limb blood flow was measured using a laser doppler blood flow analyzer. At different time points post-surgery (days 1, 3, 7, 14, 21 and 28), animals were subjected to 3 consecutive laser scannings over the regions of interest (leg and feet). Blood flow was expressed as the ischemic versus normal hind limb ratio.
The animals were deeply anesthetised with mix of Ketamine Xylasine (100 mg/kg and 10 mg/kg respectively) and perfused intracardially with 2 ml of lipiodole. CT 3D images were obtained with a microPET/microCT rodent model scanner (nanoPET/CTO, Mediso) with features below: 70 kVp energy, exposure time of 300 ms and 720 projections and were quantified.

[5] = test system: CD146 KO mouse model of Systemic Sclerosis; experiment: CD146 KO mouse model of Systemic Sclerosis induced by bleomycin; format: in vivo; details: bleomycin-treated animals, subcutaneous injection
Description: C: Dermal thickness was evaluated in a CD146 KO mouse model of Systemic Sclerosis induced by subcutaneous injection of bleomycin. The effect of shed sCD146, I5-13-sCD146 and I10-sCD146 was estimated and the average of 4-5 different animals was given. Representative pictures are also shown.
D: The aspect of the skin is shown in the different CD146 KO mice treated with bleomycin and injected or not with shed sCD146, I10-sCD146 and I5-13-sCD146.
E: Blood vessels examination in skin of animals treated or not with shed sCD146/I10-sCD146/I5-13-sCD146. Vessels are labelled with isolectin B4. Results are representative of 3 different experiments in the 4-5 animals.
Male CD146 KO mice (11-16 weeks) were treated with subcutaneous bleomycin and were compared with littermates WT mice as previously described (Kaspi et al., 2017).
Mice skin sections were fixed in 4% formalin and embedded into paraffin. Dermal thickness was quantified using a stereological method using a Merz grid as previously described (Kaspi et al., 2017).

sCD146: recombinant human soluble form of CD146 corresponding to the shed sCD146, obtained from Biocytex
I5-13-sCD146 mRNA level ([1]; ECFC, 24 h treatment (WNT5a 15 min, WNT3a 1 h)): not modified
endothelial cells proliferation [2]: increased endothelial cells proliferation
pseudo-capillary generation (number of sprouts, cumulative sprout length) [3]: increased the ability to generate pseudo-capillaries
blood flow (laser-Doppler) [4]: able to increase blood flow
vascularisation of muscle (isolectin B4 labelling) [4]: vascularisation was increased
number of vessels in the legs (angiography pictures) [4]: increase in the number of vessels
vessel density in calf, thigh and whole leg (angiography quantification) [4]: significantly increased
dermal thickness [5]: reduced this dermal thickness to the value observed in control animals
vascularisation of the skin at macroscopic level [5]: increased vascularisation
vessel density in skin (isolectin-b4 labelling) [5]: significantly reversed

B1: rh-I5-13-sCD146: recombinant spliced variant of soluble CD146 containing introns 5 and 13, SEQ ID NO: 8 (protein, listed as Homo sapiens)
chain: MVYIVRQFLLYNVSGSVYLDQLIVLLTAKFSILRIAGSRVHHSPFSGHLDGCSFLSLQHSLHTSLDMSRHENVFLGLTLSSKSAGLKGFQLAFVPGLLQGTGGYLDGPLPTPVDNPRVGLEVGLRLSLPPLPPCPGVHIQSSQTVESSGLYTLQSILKAQLVKEDKDAQFYCELNYRLPSGNHMKESREVTVPVFYPTEKVWLEVEPVGMLKEGDRVEIRCLADGNPPPHFSISKQNPSTREAEEETTNDNGVLVLEPARKEHSGRYECQGLDLDTMISLLSEPQELLVNYVSDVRVSPAAPERQEGSSLTLTCEAESSQDLEFQWLREETGQVLERGPVLQLHDLKREAGGGYRCVASVPSIPGLNRTQLVNVAIFGPPWMAFKERKVWVKENMVLNLSCEASGHPRPTISWNVNGTASEQDQDPQRVLSTLNVLVTPELLETGVECTASNDLGKNTSILFLELVNLTTLTPDSNTTTGLSTSTASPHTRANSTSTGKPGLAREQGCARASFLPCPSPESPVQKGE
expression of short CD146, long CD146, I5-13-sCD146 and I10-sCD146 at the mRNA level [1]: did not modify the expression
endothelial cells proliferation [2]: increased endothelial cells proliferation
pseudo-capillary generation (number of sprouts, cumulative sprout length) [3]: increased the ability to generate pseudo-capillaries
blood flow (laser-Doppler) [4]: able to increase blood flow
vascularisation of muscle (isolectin B4 labelling) [4]: vascularisation was increased
number of vessels in the legs (angiography pictures) [4]: increase in the number of vessels
vessel density in calf, thigh and whole leg (angiography quantification) [4]: significantly increased
dermal thickness [5]: no significant effect
vascularisation of the skin at macroscopic level [5]: did not
vessel density in skin (isolectin-b4 labelling) [5]: no effect

B2: rh-I10-sCD146: recombinant spliced variant of soluble CD146 containing intron 10, SEQ ID NO: 9 (protein, listed as Homo sapiens)
chain: MGLPRLVCAFLLAACCCCPRVAGVPGEAEQPAPELVEVEVGSTALLKCGLSQSQGNLSHVDWFSVHKEKRTLIFRVRQGQGQSEPGEYEQRLSLQDRGATLALTQVTPQDERIFLCQGKRPRSQEYRIQLRVYKAPEEPNIQVNPLGIPVNSKEPEEVATCVGRNGYPIPQVIWYKNGRPLKEEKNRVHIQSSQTVESSGLYTLQSILKAQLVKEDKDAQFYCELNYRLPSGNHMKESREVTVPVFYPTEKVWLEVEPVGMLKEGDRVEIRCLADGNPPPHFSISKQNPSTREAEEETTNDNGVLVLEPARKEHSGRYECQGLDLDTMISLLSEPQELLVNYVSDVRVSPAAPERQEGSSLTLTCEAESSQDLEFQWLREETGQVLERGPVLQLHDLKREAGGGYRCVASVPSIPGLNRTQLVNVAIFGEALPLGRDQVTPSGVVFKLFDKKPPAALGSSGAEGEAG
expression of short CD146, long CD146, I5-13-sCD146 and I10-sCD146 at the mRNA level [1]: did not modify the expression
endothelial cells proliferation [2]: increased endothelial cells proliferation
pseudo-capillary generation (number of sprouts, cumulative sprout length) [3]: increased the ability to generate pseudo-capillaries
time after first injection at which a significant effect on blood flow was observed ([4]; 2 μg locally twice a week): 3 days
blood flow (laser-Doppler) [4]: able to increase blood flow
vascularisation of muscle (isolectin B4 labelling) [4]: vascularisation was increased
number of vessels in the legs (angiography pictures) [4]: increase in the number of vessels
vessel density in calf, thigh and whole leg (angiography quantification) [4]: significantly increased
dermal thickness [5]: reduced this dermal thickness to the value observed in control animals
vascularisation of the skin at macroscopic level [5]: increased vascularisation
vessel density in skin (isolectin-b4 labelling) [5]: significantly reversed
